Measurements: patent US20250355001A1, “METHOD FOR DETECTING A TAU PROTEIN FRAGMENT IN A SAMPLE” (GTINVENT LIMITED, priority 2022, published 2025)

Key:
[1] = target: full length human tau protein 2N4R (hT40) (human) (UniProt P10636); test: Simoa sandwich, capture S1D12, biotinylated detector
[2] = target: full length human tau protein 2N4R (hT40) (human) (UniProt P10636); test: Simoa sandwich, capture CB7, biotinylated detector
[3] = target: full length human tau protein 2N4R (hT40) (human) (UniProt P10636); test: Simoa sandwich, capture S1G2, biotinylated detector
[4] = target: full length human tau protein 2N4R (hT40) (human) (UniProt P10636); test: Simoa sandwich, capture Tau12, biotinylated detector
[5] = target: full length human tau protein 2N4R (hT40) (human) (UniProt P10636); test: SPR, hT40 immobilised, mAb analyte

Chain of full length human tau protein 2N4R (hT40) (human) (P10636 other isoform, or with tags, fused parts or gaps limits assumed): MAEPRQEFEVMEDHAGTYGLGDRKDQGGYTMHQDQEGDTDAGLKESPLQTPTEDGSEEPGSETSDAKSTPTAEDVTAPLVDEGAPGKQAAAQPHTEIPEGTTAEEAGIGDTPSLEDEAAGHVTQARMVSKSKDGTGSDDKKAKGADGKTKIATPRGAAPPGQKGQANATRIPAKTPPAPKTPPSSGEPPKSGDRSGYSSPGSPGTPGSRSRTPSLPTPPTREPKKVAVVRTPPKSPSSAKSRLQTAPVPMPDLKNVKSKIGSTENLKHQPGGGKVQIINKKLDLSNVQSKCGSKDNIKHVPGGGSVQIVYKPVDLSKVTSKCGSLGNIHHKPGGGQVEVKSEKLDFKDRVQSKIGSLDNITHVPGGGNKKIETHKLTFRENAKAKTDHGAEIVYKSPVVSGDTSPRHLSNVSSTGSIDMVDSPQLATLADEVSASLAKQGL

Row | Simoa limit of detection [1] | Simoa limit of detection [2] | Simoa limit of detection [3] | Simoa limit of detection [4] | Kd [5] | Substance
1 | 0.32 pg/mL | 0.75 pg/mL |  |  |  | BT2 (antibody)
2 | 0.32 pg/mL | 2.2 pg/mL | 0.32 pg/mL | 2.2 pg/mL |  | HT7 (antibody)
3 | 0.75 pg/mL |  | 1.6 pg/mL |  | 1.44 nM | Tau12 mAb (antibody)
4 |  | 2.2 pg/mL | 2.2 pg/mL |  |  | Tau46 (antibody)
